The text below walks through data of patent US20110082421A1.

Assay [1] concerns the target AGE-modified bovine serum albumin (AGE-BSA), prepared by incubating BSA in 1.67 M glucose for two months (bovine) (UniProt P02769). Nature of the assay: FIG. 1D RE series, after processing cycles.
The target is the same in assay [2]. Nature of the assay: FIG. 1D RET series, after 6 processing cycles.
Assay [3] has the same target. Nature of the assay: FIG. 1D initial capacity of the RE series; batch adsorption, competitive ELISA.
For assay [4] the target is unchanged. Nature of the assay: FIG. 1D initial capacity of the RET series; batch adsorption, competitive ELISA.
The target is the same in assay [5]. Nature of the assay: FIG. 1C initial capacity before storage in 20% ethanol; batch adsorption, competitive ELISA.
Assay [6] shares this target. Nature of the assay: FIG. 1A thermal stability, final capacity (4 h at 37 C); batch adsorption, competitive ELISA.
The target is the same in assay [7]. Nature of the assay: FIG. 1A thermal stability, initial capacity (1 h at 37 C); batch adsorption, competitive ELISA.
For assay [8] the target is unchanged. Nature of the assay: FIG. 1C final capacity after 34 days in 20% ethanol at 4 C; batch adsorption, competitive ELISA.
The target is the same in assay [9]. Nature of the assay: FIG. 1D final capacity after cycles of regeneration and ethanol storage (RE), 1 h at 37 C; batch adsorption, competitive ELISA.
The target is the same in assay [10]. Nature of the assay: FIG. 1D final capacity after 6 cycles of regeneration, ethanol storage and 4 h at 37 C (RET); batch adsorption, competitive ELISA.

Chain of AGE-modified bovine serum albumin (AGE-BSA), prepared by incubating BSA in 1.67 M glucose for two months (bovine) (P02769 25-607 limits assumed): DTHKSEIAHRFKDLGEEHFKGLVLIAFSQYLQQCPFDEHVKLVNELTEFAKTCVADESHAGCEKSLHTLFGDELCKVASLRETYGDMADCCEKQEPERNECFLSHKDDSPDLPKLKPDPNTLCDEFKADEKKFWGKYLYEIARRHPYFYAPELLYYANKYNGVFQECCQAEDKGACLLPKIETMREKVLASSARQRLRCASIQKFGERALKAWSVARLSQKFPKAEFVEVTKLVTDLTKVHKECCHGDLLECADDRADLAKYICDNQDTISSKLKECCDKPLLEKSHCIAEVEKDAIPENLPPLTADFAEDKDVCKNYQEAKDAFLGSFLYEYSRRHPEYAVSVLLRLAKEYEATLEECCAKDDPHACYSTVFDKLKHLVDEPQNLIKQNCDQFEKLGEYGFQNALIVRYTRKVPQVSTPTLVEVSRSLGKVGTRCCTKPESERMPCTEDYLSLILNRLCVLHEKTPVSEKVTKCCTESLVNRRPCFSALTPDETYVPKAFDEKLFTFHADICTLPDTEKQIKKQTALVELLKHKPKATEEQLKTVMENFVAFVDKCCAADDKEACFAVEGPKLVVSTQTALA

In assay [1], “RAGE-His construct (extracellular region of human RAGE, amino acid residues 23 through 340, with C-terminal six-histidine tag), immobilized on agarose (from UniProt Q15109 23-340) (receptor)” gave a decrease of binding capacity against the initial value of 10%. Further, in [2], the decrease of binding capacity against the initial binding capacity amounted to 16%. For the same substance, the binding capacity (mg AGE-BSA/ml RAGE gel) in assay [3] was determined as 0.92; in assay [4], 0.94; in assay [5], 0.6; in assay [6] it was 0.94; in assay [7], 0.92; in assay [8], 0.57. Besides, the binding capacity (mg AGE-BSA/ml RAGE gel) in [9] was determined as 0.82; in assay [10] it was 0.79.
